Results taken from the supplement of paper PMC11316812.
± gives the standard deviation of the averaged measurements.

Tests used:
MCF7 = assay: percentage of EdU-negative (G0-arrested) nuclei per well, 72 h; higher = more G0 arrest; details: reference: sequence is the full UniProt precursor, the tested protein was the secreted form or ectodomain
hTERT-HMEC = assay: as above; details: reference: sequence is the full UniProt precursor, the tested protein was the secreted form or ectodomain
[1] = protein concentration 0.0225 µM
[2] = protein concentration 0.0182675 µM
[3] = protein concentration 0.182675 µM
[4] = protein concentration 0.03125 µM
[5] = protein concentration 0.3125 µM
[6] = protein concentration 0.01925 µM
[7] = protein concentration 0.1925 µM
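Note: secreted proteins added to cultured cells, EdU pulse at the end, nuclei found by Hoechst imaging, EdU status from nuclear versus surrounding ring intensity ratio, PBS as neutral control.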

Row | Sequence | percentage of EdU-negative (MCF7; [1]) | percentage of EdU-negative (MCF7; protein concentration 0.225 µM) | percentage of EdU-negative (hTERT-HMEC; [1]) | percentage of EdU-negative (hTERT-HMEC; protein concentration 0.225 µM) | further results
1 | MQGPWVLLLLGLRLQLSLGVIPAEEENPAFWNRQAAEALDAAKKLQPIQKVAKNLILFLGDGLGVPTVTATRILKGQKNGKLGPETPLAMDRFPYLALSKTYNVDRQVPDSAATATAYLCGVKANFQTIGLSAAARFNQCNTTRGNEVISVMNRAKQAGKSVGVVTTTRVQHASPAGTYAHTVNRNWYSDADMPASARQEGCQDIATQLISNMDIDVILGGGRKYMFPMGTPDPEYPADASQNGIRLDGKNLVQEWLAKHQGAWYVWNRTELMQASLDQSVTHLMGLFEPGDTKYEIHRDPTLDPSLMEMTEAALRLLSRNPRGFYLFVEGGRIDHGHHEGVAYQALTEAVMFDDAIERAGQLTSEEDTLTLVTADHSHVFSFGGYTLRGSSIFGLAPSKAQDSKAYTSILYGNGPGYVFNSGVRPDVNESESGSPDYQQQAAVPLSSETHGGEDVAVFARGPQAHLVHGVQEQSFVAHVMAFAACLEPYTACDLAPPACTTDAAHPVAASLPLLAGTLLLLGASAAP | 24.8 ± 1.8% | 24.4 ± 0.42% | 5.37 ± 0.33% | 6.16 ± 1.5% | 
2 | MAAAVVLAAGLRAARRAVAATGVRGGQVRGAAGVTDGNEVAKAQQATPGGAAPTIFSRILDKSLPADILYEDQQCLVFRDVAPQAPVHFLVIPKKPIPRISQAEEEDQQLLGHLLLVAKQTAKAEGLGDGYRLVINDGKLGAQSVYHLHIHVLGGRQLQWPPG [Q9BX68] | 24.7 ± 1.1% | 26.8 ± 0.95% | 4.56 ± 0.51% | 5.01 ± 0.41% | 
3 | MLKALFLTMLTLALVKSQDTEETITYTQCTDGYEWDPVRQQCKDIDECDIVPDACKGGMKCVNHYGGYLCLPKTAQIIVNNEQPQQETQPAEGTSGATTGVVAASSMATSGVLPGGGFVASAAAVAGPEMQTGRNNFVIRRNPADPQRIPSNPSHRIQCAAGYEQSEHNVCQDIDECTAGTHNCRADQVCINLRGSFACQCPPGYQKRGEQCVDIDECTIPPYCHQRCVNTPGSFYCQCSPGFQLAANNYTCVDINECDASNQCAQQCYNILGSFICQCNQGYELSSDRLNCEDIDECRTSSYLCQYQCVNEPGKFSCMCPQGYQVVRSRTCQDINECETTNECREDEMCWNYHGGFRCYPRNPCQDPYILTPENRCVCPVSNAMCRELPQSIVYKYMSIRSDRSVPSDIFQIQATTIYANTINTFRIKSGNENGEFYLRQTSPVSAMLVLVKSLSGPREHIVDLEMLTVSSIGTFRTSSVLRLTIIVGPFSF |  |  |  |  | percentage of EdU-negative (MCF7; [2]): 28 ± 2.2%; percentage of EdU-negative (MCF7; [3]): 29.1 ± 1.9%; percentage of EdU-negative (hTERT-HMEC; [2]): 4.75 ± 0.46%; percentage of EdU-negative (hTERT-HMEC; [3]): 15.7 ± 1.1%
4 | MVKQIESKTAFQEALDAAGDKLVVVDFSATWCGPCKMIKPFFHSLSEKYSNVIFLEVDVDDCQDVASECEVKCMPTFQFFKKGQKVGEFSGANKEKLEATINELV |  |  |  |  | percentage of EdU-negative (MCF7; [4]): 25.2 ± 1.2%; percentage of EdU-negative (MCF7; [5]): 23.8 ± 1.9%; percentage of EdU-negative (hTERT-HMEC; [4]): 4.86 ± 0.3%; percentage of EdU-negative (hTERT-HMEC; [5]): 4.9 ± 0.23%
5 | MRWILFIGALIGSSICGQEKFFGDQVLRINVRNGDEISKLSQLVNSNNLKLNFWKSPSSFNRPVDVLVPSVSLQAFKSFLRSQGLEYAVTIEDLQALLDNEDDEMQHNEGQERSSNNFNYGAYHSLEAIYHEMDNIAADFPDLARRVKIGHSFENRPMYVLKFSTGKGVRRPAVWLNAGIHSREWISQATAIWTARKIVSDYQRDPAITSILEKMDIFLLPVANPDGYVYTQTQNRLWRKTRSRNPGSSCIGADPNRNWNASFAGKGASDNPCSEVYHGPHANSEVEVKSVVDFIQKHGNFKGFIDLHSYSQLLMYPYGYSVKKAPDAEELDKVARLAAKALASVSGTEYQVGPTCTTVYPASGSSIDWAYDNGIKFAFTFELRDTGTYGFLLPANQIIPTAEETWLGLKTIMEHVRDNLY [Q9UI42] | 26.3 ± 1.7% | 29.1 ± 1.7% | 5.99 ± 0.71% | 5.12 ± 0.8% | 
6 | MGSSSFLVLMVSLVLVTLVAVEGVKEGIEKAGVCPADNVRCFKSDPPQCHTDQDCLGERKCCYLHCGFKCVIPVKELEEGGNKDEDVSRPYPEPGWEAKCPGSSSTRCPQK [Q8WWY7] |  |  |  |  | percentage of EdU-negative (MCF7; [4]): 26.5 ± 3.1%; percentage of EdU-negative (MCF7; [5]): 24 ± 2.8%; percentage of EdU-negative (hTERT-HMEC; [4]): 5.3 ± 0.5%; percentage of EdU-negative (hTERT-HMEC; [5]): 5.28 ± 0.67%
7 | MALVRALVCCLLTAWHCRSGLGLPVAPAGGRNPPPAIGQFWHVTDLHLDPTYHITDDHTKVCASSKGANASNPGPFGDVLCDSPYQLILSAFDFIKNSGQEASFMIWTGDSPPHVPVPELSTDTVINVITNMTTTIQSLFPNLQVFPALGNHDYWPQDQLPVVTSKVYNAVANLWKPWLDEEAISTLRKGGFYSQKVTTNPNLRIISLNTNLYYGPNIMTLNKTDPANQFEWLESTLNNSQQNKEKVYIIAHVPVGYLPSSQNITAMREYYNEKLIDIFQKYSDVIAGQFYGHTHRDSIMVLSDKKGSPVNSLFVAPAVTPVKSVLEKQTNNPGIRLFQYDPRDYKLLDMLQYYLNLTEANLKGESIWKLEYILTQTYDIEDLQPESLYGLAKQFTILDSKQFIKYYNYFFVSYDSSVTCDKTCKAFQICAIMNLDNISYADCLKQLYIKHNY |  |  |  |  | percentage of EdU-negative (MCF7; [6]): 26.4 ± 2.1%; percentage of EdU-negative (MCF7; [7]): 28.3 ± 3.7%; percentage of EdU-negative (hTERT-HMEC; [6]): 4.69 ± 0.32%; percentage of EdU-negative (hTERT-HMEC; [7]): 15.5 ± 1.9%
8 | MRKFAYCKVVLATSLIWVLLDMFLLLYFSECNKCDEKKERGLPAGDVLEPVQKPHEGPGEMGKPVVIPKEDQEKMKEMFKINQFNLMASEMIALNRSLPDVRLEGCKTKVYPDNLPTTSVVIVFHNEAWSTLLRTVHSVINRSPRHMIEEIVLVDDASERDFLKRPLESYVKKLKVPVHVIRMEQRSGLIRARLKGAAVSKGQVITFLDAHCECTVGWLEPLLARIKHDRRTVVCPIIDVISDDTFEYMAGSDMTYGGFNWKLNFRWYPVPQREMDRRKGDRTLPVRTPTMAGGLFSIDRDYFQEIGTYDAGMDIWGGENLEISFRIWQCGGTLEIVTCSHVGHVFRKATPYTFPGGTGQIINKNNRRLAEVWMDEFKNFFYIISPGVTKVDYGDISSRVGLRHKLQCKPFSWYLENIYPDSQIPRHYFSLGEIRNVETNQCLDNMARKENEKVGIFNCHGMGGNQVFSYTANKEIRTDDLCLDVSKLNGPVTMLKCHHLKGNQLWEYDPVKLTLQHVNSNQCLDKATEEDSQVPSIRDCNGSRSQQWLLRNVTLPEIF | 25.1 ± 1% | 23.6 ± 2.5% | 4.8 ± 0.5% | 5.577 ± 0.015% | 
